The values below are quoted from earlier work in article PMC11346460.

A word on the Kd: it is the equilibrium constant for the complex coming apart.

In the data set the target is RIG-I (Homo sapiens) (UniProt O95786).
UniProt O95786, sequence (O95786 whole entry): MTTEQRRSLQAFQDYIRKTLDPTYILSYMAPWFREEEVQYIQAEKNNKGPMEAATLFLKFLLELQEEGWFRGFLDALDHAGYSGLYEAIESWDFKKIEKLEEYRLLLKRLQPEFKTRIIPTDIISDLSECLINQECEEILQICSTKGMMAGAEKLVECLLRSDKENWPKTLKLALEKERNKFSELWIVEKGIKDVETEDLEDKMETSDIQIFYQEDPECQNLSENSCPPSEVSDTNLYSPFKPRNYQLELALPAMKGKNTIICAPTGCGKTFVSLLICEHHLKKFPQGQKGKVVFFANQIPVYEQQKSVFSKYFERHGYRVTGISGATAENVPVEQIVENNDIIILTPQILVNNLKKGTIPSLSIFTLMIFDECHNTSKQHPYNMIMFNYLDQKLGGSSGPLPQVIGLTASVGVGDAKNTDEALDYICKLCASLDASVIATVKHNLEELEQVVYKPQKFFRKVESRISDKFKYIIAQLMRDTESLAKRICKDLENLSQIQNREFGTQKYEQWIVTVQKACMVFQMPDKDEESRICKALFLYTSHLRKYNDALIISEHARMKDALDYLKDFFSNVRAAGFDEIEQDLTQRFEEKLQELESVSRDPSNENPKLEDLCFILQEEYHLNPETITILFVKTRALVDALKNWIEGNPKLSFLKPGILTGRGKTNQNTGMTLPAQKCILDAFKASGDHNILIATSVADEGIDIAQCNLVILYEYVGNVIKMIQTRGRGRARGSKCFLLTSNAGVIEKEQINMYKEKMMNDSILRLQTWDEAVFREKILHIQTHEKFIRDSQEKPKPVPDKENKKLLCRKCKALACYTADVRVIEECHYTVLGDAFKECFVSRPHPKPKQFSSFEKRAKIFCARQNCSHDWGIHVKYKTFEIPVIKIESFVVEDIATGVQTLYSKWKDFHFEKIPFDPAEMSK

For RIPLET (from UniProt Q8IUD6), the Kd is 6.6 nM.
